Results reported in US20080182978A1, “ANTI-NGF ANTIBODIES AND METHODS USING SAME” (RINAT NEUROSCIENCE CORP, priority 2002, published 2008).
Entries after “also recorded” stand apart in the source; their conditions may differ.

What was measured:
Type in all cases: cell-based
[1] = target: T1, human NGF (Homo sapiens, UniProt P01138); test: Mouse E13.5 trigeminal neuron survival assay, human NGF; settings: 0.4 ng/ml human NGF (saturating); 0.00128-20 nM
Experimental: The ability of Fab E3 or full antibody E3 to block NGF activity was evaluated by measurement of the capacity of the antibody to inhibit NGF-dependent survival of mouse E13.5 trigeminal neurons in vitro. The trigeminal ganglion is comprised of cutaneous sensory neurons that innervate the facial region. The survival of mouse E13.5 trigeminal neurons is a sensitive assay to evaluate the NGF-blocking activity of anti-NGF antagonist antibodies because NGF is required to support survival of these neurons. For example, at saturating concentrations of NGF, the survival is close to 100% by 48 hours in culture. By contrast, less than 5% of the neurons survive by 48 hours in absence of NGF.
The survival assay was conducted as follows: time-mated pregnant Swiss Webster female mice were euthanized by CO2 inhalation. The uterine horns were removed and the embryos at embryonic stage E13.5 were extracted and decapitated. The trigeminal ganglia were dissected using electrolytically sharpened tungsten needles. The ganglia were then trypsinized, mechanically dissociated and plated at a density of 200-300 cells per well in defined, serum-free medium in 96-well plates coated with poly-L-ornithine and laminin.
After 48 hours in culture, the cells were subjected to an automated immunocytochemistry protocol performed on a Biomek FX liquid handling workstation (Beckman Coulter) as follows: fixation using 4% formaldehyde, 5% sucrose, and PBS; permeabilization using 0.3% Triton X-100 in PBS); blocking of unspecific binding sites using 5% normal goat serum, 0.11% BSA in PBS; and sequential incubation with a primary and secondary antibodies to detect neurons. The primary antibody was rabbit polyclonal antibody against the protein gene product […] (PGP9.5, Chemicon), an established neuronal phenotypic marker. The secondary antibody was Alexa Fluor 488 goat anti-rabbit (Molecular Probes), together with the nuclear dye Hoechst 33342 (Molecular Probes) to label the nuclei of all the cells present in the culture. […]

[2] = target: T1, human NGF; test: Mouse E17/18 trigeminal neuron survival assay, NGF; settings: saturating NGF (400 pM); 48 hours
Experimental: (§1) The ability of antibody E3 to specifically block NGF activity was evaluated by measurement of the capacity of the antibody to inhibit survival of mouse E17/18 trigeminal neurons in vitro in the presence of saturating concentrations of NGF, the NGF-related neurotrophin NT3, or the NGF-unrelated neurotrophic factor, macrophage stimulating protein (MSP). The survival of mouse E17/18 trigeminal neurons is a sensitive assay to evaluate the NGF-blocking activity of anti-NGF antagonist antibodies because NGF is required to support survival of these neurons at higher concentrations than the level of NGF required to support survival of E13.5 TG neurons).
(§2) The survival assay was conducted as follows: time mated pregnant Swiss Webster female mice were euthanised by CO2 inhalation. The uterine horns were removed and the embryos (at embryonic day 17 or 18) were extracted and decapitated. The trigeminal and nodose ganglia were dissected and cleaned. The ganglia were then trypsinised, mechanically dissociated and plated at a density of 100-300 cells per well in defined, serum-free medium in 4-well plates (Greiner) coated with poly-L-ornithine and laminin.
(§3) E17/18 trigeminal neurons were grown either without added neurotrophic factors (negative control) or in the presence of saturating concentrations of human NGF (400 pM and 15 pM) (positive control); NT3 (400 pM); or MSP (600 pM). […]

[3] = target: macrophage stimulating protein (MSP) (Homo sapiens, UniProt P26927); test: Mouse E17/18 trigeminal neuron survival assay, MSP; settings: MSP 600 pM; antibody up to 200 nM; 48 hours
Experimental: as §1, §2, §3

[4] = target: T2, BDNF (Homo sapiens, UniProt P23560); test: Mouse E17 nodose neuron survival assay, BDNF; settings: BDNF 400 pM; antibody up to 200 nM; 48 hours
T2 sequence (P23560 129-247): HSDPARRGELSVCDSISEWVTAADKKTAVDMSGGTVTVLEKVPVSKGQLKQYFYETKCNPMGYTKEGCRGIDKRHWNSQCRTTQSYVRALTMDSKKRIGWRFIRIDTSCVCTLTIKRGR
Experimental: The ability of antibody E3 to specifically block NGF activity was also evaluated by measurement of the capacity of the antibody to inhibit survival of mouse nodose E17 neurons in the presence of saturating concentrations of BDNF or NT4/5. Survival of nodose neurons is supported by BDNF or NT4/5; therefore, survival of these neurons is a sensitive assay to evaluate the BDNF or NT4/5-blocking ability of the anti-NGF antagonist antibody.
as §2
E17 nodose neurons were grown either in the absence of added neurotrophic factors (negative control), or with saturating concentrations of BDNF (400 pM) (positive control) or NT4/5 (400 pM) or NGF unrelated growth factor […]. High concentrations of neurotrophins were used, as the goal of this experiment was to test specificity of the antibodies. […]

T1 sequence (P01138 122-241): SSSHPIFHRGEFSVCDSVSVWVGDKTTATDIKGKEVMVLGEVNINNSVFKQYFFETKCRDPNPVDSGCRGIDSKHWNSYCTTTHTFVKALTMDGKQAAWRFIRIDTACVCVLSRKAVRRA
macrophage stimulating protein (MSP), sequence (P26927 19-711, species assumed): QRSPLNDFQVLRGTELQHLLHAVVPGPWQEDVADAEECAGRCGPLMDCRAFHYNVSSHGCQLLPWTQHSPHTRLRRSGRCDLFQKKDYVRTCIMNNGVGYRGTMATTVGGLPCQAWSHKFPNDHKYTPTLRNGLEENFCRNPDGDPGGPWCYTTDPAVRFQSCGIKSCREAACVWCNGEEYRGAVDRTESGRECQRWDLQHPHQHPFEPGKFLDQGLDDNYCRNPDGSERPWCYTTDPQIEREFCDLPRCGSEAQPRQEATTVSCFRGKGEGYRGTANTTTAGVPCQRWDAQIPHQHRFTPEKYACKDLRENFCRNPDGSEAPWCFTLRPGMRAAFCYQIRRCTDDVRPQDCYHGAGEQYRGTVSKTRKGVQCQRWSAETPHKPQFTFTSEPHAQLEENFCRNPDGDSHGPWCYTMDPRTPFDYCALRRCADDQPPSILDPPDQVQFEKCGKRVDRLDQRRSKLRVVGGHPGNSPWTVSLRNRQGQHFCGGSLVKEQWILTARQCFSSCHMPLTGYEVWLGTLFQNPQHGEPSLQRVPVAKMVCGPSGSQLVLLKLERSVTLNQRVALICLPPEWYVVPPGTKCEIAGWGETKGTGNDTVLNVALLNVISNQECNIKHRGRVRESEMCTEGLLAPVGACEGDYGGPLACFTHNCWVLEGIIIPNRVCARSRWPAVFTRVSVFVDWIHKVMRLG

B1: E3: humanized, affinity matured anti-NGF antagonist antibody; variable regions SEQ ID NO:1 and 2; human IgG2a (A330P331 to S330S331), kappa (antibody, V domains shown)
VH: QVQLQESGPGLVKPSETLSLTCTVSGFSLIGYDLNWIRQPPGKGLEWIGIIWGDGTTDYNSAVKSRVTISKDTSKNQFSLKLSSVTAADTAVYYCARGGYWYATSYYFDYWGQGTLVTVS
VL: DIQMTQSPSSLSASVGDRVTITCRASQSISNNLNWYQQKPGKAPKLLIYYTSRFHSGVPSRFSGSGSGTDFTFTISSLQPEDIATYYCQQEHTLPYTFGQGTKLEIKRT
modifications: human IgG2a constant (A330S/P331S) and kappa constant missing
- inhibition of NGF-dependent survival compared with antibody 911 and trkA immunoadhesin [1]: blocked NGF significantly better than either mouse monoclonal anti-NGF antibody 911 or the trkA immunoadhesin
- survival of E17/18 trigeminal neurons promoted by NGF [2]: completely blocked; also recorded: totally blocked
- survival of E17/18 trigeminal neurons promoted by MSP [3]: had no effect; also recorded: did not inhibit
- survival of E17 nodose neurons promoted by BDNF [4]: had no effect; also recorded: did not inhibit
